Values quoted from earlier work, collected in publication PMC4409539 (Cancer gene therapy, 2015).

Tests used:
pancreatic tumor cells = pancreatic tumor cells infected at 25 pfu/cell with bCD
[1] = yCD versus bCD

Molecule | 5-FC conversion (pancreatic tumor cells) | Km for 5-FC, fold lower than bCD [1] | thermal stability compared with bCD [1]
bacterial cytosine deaminase [bCD] | 0.2 to 0.7 pmol/min/mg | – | –
yeast cytosine deaminase (protein, UniProt Q12178 1-158, looked up) Cytosine deaminase: MVTGGMASKWDQKGMDIAYEEAALGYKEGGVPIGGCLINNKDGSVLGRGHNMRFQKGSATLHGEISTLENCGRLEGKVYKDTTLYTTLSPCDMCTGAIIMYGIPRCVVGENVNFKSKGEKYLQTRGHEVVVVDDERCKKIMKQFIDERPQDWFEDIGE | – | 22 fold | more thermolabile than bCD
